The values below are quoted from earlier work in PMC9254699 (Biomaterials science, 2021).

Data set [1] deals with T1, TGF-β1 (Homo sapiens, UniProt P01137).
In data set [2] the target is T1, TGF-β1. The source holds these as a separate data set.

T1 sequence (P01137 279-390 limits assumed, species assumed): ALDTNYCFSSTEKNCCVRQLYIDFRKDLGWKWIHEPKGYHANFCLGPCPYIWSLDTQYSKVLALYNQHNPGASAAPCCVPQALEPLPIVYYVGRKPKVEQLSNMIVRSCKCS

B1: γ-interferon: molecule with activity against TGF-β1, explored preclinically as anti-fibrotic (protein, UniProt P01579 24-161, looked up)
Interferon gamma: QDPYVKEAENLKKYFNAGHSDVADNGTLFLGILKNWKEESDRKIMQSQIVSFYFKLFKNFKDDQSIQKSVETIKEDMNVKFFNSNKKKRDDFEKLTNYSVTDLNVQRKAIHELIQVMAELSPAAKTGKRKRSQMLFRG
For B1, the “activity against TGF-β1, preclinical anti-fibrotic” value in data set [1] is listed as “activity against TGF-β1”. Further, in data set [2], the “direct binding to TGF-β1 or its receptors” value was “do not directly bind TGF-β1 or its receptors”.

B2: decorin: molecule with activity against TGF-β1, explored preclinically as anti-fibrotic (protein, UniProt P07585 31-359, looked up)
Decorin: DEASGIGPEVPDDRDFEPSLGPVCPFRCQCHLRVVQCSDLGLDKVPKDLPPDTTLLDLQNNKITEIKDGDFKNLKNLHALILVNNKISKVSPGAFTPLVKLERLYLSKNQLKELPEKMPKTLQELRAHENEITKVRKVTFNGLNQMIVIELGTNPLKSSGIENGAFQGMKKLSYIRIADTNITSIPQGLPPSLTELHLDGNKISRVDAASLKGLNNLAKLGLSFNSISAVDNGSLANTPHLRELHLDNNKLTRVPGGLAEHKYIQVVYLHNNNISVVGSSDFCPPGHNTKKASYSGVSLFSNPVQYWEIQPSTFRCVYVRSAIQLGNYK
For the molecule B2, in data set [1], the “activity against TGF-β1, preclinical anti-fibrotic” value is recorded as “activity against TGF-β1”. The “direct binding to TGF-β1 or its receptors” value in data set [2] is “do not directly bind TGF-β1 or its receptors”.
